Assay results published in patent CN114634565A.

Experiments:
[1] = biological target: 裂谷热病毒Gn蛋白 (GenBank: DQ380208.1) (裂谷热病毒 (Rift Valley fever virus))
[2] = biological target: 裂谷热病毒Gn蛋白 (GenBank: DQ380208.1) (裂谷热病毒 (Rift Valley fever virus)); remark: listed apart in the source
[3] = biological target: 裂谷热病毒Gn蛋白 (GenBank: DQ380208.1) (裂谷热病毒 (Rift Valley fever virus)); remark: listed apart in the source

B1: 抗裂谷热病毒的单克隆抗体E44 (antibody, V domains shown)
VH: QVQLQQWGEGLVNPSEALSLTCAVYGDSISDDYHWSWIRQPPGKGLEWIGYIFGSSAGTNYNPSLKNRVTISKDTSKNQFSLELTSVTAADTAVYYCARDVTTDRLDVWGPGVPVTVSS
VL: NFMLTQPPSVSADQGQRVTISCSGSSFNVRRYYVSWYQQVPGAAPKLLISDVNKRPSGVSDRFSGSQSGTSATLGISGLRPEDEADYYCSVWDSSLGARVFGGGTRLTVLG
OD值 (OD450nm-OD630nm) [1]: 2.35
Kd [2]: 2.58 nM
EC50 [3]: 2.66 ng/mL
